Measurements from patent EP1379283B1, “IDENTIFICATION OF TARGET-SPECIFIC FOLDING SITES IN PEPTIDES AND PROTEINS” (Palatin Technologies, Inc., priority 2000, dated 2002).

Key:
[1] = molecular target: uPA receptor (urokinase-type plasminogen activator receptor) on U937 cells (UniProt Q03405); assay: competition receptor-binding assay on U937 cells, ATF as competing ligand, metallopeptide at 1 µM
[2] = molecular target: vasopressin-1 receptor of rat liver cell membranes (rat) (UniProt P30560); assay: competition with 3H-vasopressin-1 antagonist on rat liver membranes, metallopeptide at 1 µM
[3] = molecular target: oxytocin receptor of rat uterus cell membranes (rat) (UniProt P70536); assay: competition with 3H-oxytocin on rat uterus membranes, metallopeptide at 1 µM
[4] = molecular target: angiotensin-II receptor of human neuroblastoma cells (KAN-TS) (human); assay: competition with 125I-Tyr4,Sar1,Ile8-angiotensin II on KAN-TS human neuroblastoma cell membranes, metallopeptide at 1 µM
angiotensin-II receptor of human neuroblastoma cells (KAN-TS) (human), sequence (P30556 whole entry): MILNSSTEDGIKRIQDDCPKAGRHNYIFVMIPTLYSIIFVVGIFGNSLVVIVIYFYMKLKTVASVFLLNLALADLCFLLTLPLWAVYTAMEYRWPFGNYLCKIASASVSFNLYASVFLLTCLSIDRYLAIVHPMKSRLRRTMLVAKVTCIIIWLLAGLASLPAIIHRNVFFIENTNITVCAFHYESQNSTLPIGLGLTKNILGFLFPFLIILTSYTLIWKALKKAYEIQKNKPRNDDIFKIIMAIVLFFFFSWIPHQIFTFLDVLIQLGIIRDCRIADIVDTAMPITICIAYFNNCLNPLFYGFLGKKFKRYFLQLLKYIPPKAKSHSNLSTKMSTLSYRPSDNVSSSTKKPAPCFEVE

uPA receptor (urokinase-type plasminogen activator receptor) on U937 cells, sequence (Q03405 23-305): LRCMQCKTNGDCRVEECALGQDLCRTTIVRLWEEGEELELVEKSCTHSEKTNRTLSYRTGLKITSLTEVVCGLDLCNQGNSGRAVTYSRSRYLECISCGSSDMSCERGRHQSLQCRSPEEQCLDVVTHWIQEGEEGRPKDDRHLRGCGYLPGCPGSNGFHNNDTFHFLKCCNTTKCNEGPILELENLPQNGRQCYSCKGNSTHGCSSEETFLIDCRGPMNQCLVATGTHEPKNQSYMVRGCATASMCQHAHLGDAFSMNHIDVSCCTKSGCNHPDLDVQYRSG
oxytocin receptor of rat uterus cell membranes (rat), sequence (P70536 whole entry): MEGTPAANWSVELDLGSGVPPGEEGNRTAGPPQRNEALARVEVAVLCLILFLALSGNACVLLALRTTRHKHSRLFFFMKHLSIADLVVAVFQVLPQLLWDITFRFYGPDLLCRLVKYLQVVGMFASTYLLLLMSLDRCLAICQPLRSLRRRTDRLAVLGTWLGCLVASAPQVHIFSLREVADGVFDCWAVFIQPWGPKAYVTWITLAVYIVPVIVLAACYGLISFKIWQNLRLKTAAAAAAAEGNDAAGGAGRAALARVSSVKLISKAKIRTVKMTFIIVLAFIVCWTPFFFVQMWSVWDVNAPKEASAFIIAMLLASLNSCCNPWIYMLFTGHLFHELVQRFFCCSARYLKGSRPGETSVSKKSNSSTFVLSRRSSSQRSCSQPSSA
vasopressin-1 receptor of rat liver cell membranes (rat), sequence (P30560 whole entry): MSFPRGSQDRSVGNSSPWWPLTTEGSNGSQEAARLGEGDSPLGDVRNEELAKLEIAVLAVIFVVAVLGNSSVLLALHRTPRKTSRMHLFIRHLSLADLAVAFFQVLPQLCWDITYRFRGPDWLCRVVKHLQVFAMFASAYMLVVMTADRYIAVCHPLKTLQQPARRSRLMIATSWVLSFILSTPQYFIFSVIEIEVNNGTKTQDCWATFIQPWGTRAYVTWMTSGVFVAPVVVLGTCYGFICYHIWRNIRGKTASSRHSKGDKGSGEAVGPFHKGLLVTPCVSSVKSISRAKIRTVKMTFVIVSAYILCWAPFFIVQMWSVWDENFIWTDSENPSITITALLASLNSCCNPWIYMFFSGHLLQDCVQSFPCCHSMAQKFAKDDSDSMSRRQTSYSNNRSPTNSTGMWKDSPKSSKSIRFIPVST

Substance	% Inhibition at 1 µM [1] [%]	% Inhibition at 1 µM [2] [%]	% Inhibition at 1 µM [3] [%]	also measured
Re-complexed Ac-Val-Ser-Asn-Lys-Tyr-Phe-Ser-Asn-Ile-His-Cys-Trp-NH2 (SEQ ID NO:3) (peptide)	106	–	–	–
Re-complexed Ac-Val-Ser-Asn-Lys-Tyr-Phe-Ser-Asn-Ile-His-Trp-Cys-NH2 (SEQ ID NO:12) (peptide)	0	–	–	–
Re-complexed Ac-Val-Ser-Asn-Lys-Tyr-Cys-Phe-Ser-Asn-Ile-His-Trp-NH2 (SEQ ID NO:7) (peptide)	18	–	–	–
Re-complexed Ac-Val-Ser-Asn-Lys-Tyr-Phe-Ser-Asn-Cys-Ile-His-Trp-NH2 (SEQ ID NO:10) (peptide)	32	–	–	–
Re-complexed Ala-Tyr-Ile-Gln-Asn-Ala-Ala-Leu-Gly-Cys-NH2 (SEQ ID NO:150) (peptide)	–	0	0	–
Re-complexed Ala-Tyr-Cys-Ile-Gln-Asn-Ala-Pro-Leu-Gly-NH2 (SEQ ID NO:158) (peptide)	–	1	6	–
Re-complexed Ac-Val-Ser-Asn-Lys-Tyr-Phe-Ser-Asn-Ile-Cys-His-Trp-NH2 (SEQ ID NO:11) (peptide)	0	–	–	–
Re-complexed Sar-Arg-Cys-Val-Tyr-Ile-His-Pro-Thr (SEQ ID NO:165) (peptide)	–	–	–	% Inhibition at 1 µM [4]: 1%
Re-complexed Ala-Tyr-Ile-Gln-Asn-Ala-Cys-Ala-Leu-Gly-NH2 (SEQ ID NO:154) (peptide)	–	0	31	–
Re-complexed Ala-Tyr-Ile-Gln-Cys-Asn-Ala-Pro-Leu-Gly-NH2 (SEQ ID NO:156) (peptide)	–	0	18	–
Re-complexed Ac-Val-Ser-Asn-Cys-Lys-Tyr-Phe-Ser-Asn-Ile-His-Trp-NH2 (SEQ ID NO:5) (peptide)	0	–	–	–
Re-complexed Ac-Val-Ser-Asn-Lys-Tyr-Phe-Cys-Ser-Asn-Ile-His-Trp-NH2 (SEQ ID NO:8) (peptide)	0	–	–	–
Re-complexed Ala-Tyr-Ile-Cys-Gln-Asn-Ala-Pro-Leu-Gly-NH2 (SEQ ID NO:157) (peptide)	–	0	0	–
Re-complexed Sar-Arg-Val-Tyr-Ile-His-Cys-Pro-Thr (SEQ ID NO:161) (peptide)	–	–	–	% Inhibition at 1 µM [4]: 60%
Re-complexed Ac-Val-Ser-Asn-Lys-Cys-Tyr-Phe-Ser-Asn-Ile-His-Trp-NH2 (SEQ ID NO:6) (peptide)	13	–	–	–
Re-complexed Sar-Arg-Val-Cys-Tyr-Ile-His-Pro-Thr (SEQ ID NO:164) (peptide)	–	–	–	% Inhibition at 1 µM [4]: 1%
Re-complexed Sar-Arg-Val-Tyr-Cys-Ile-His-Pro-Thr (SEQ ID NO:163) (peptide)	–	–	–	% Inhibition at 1 µM [4]: 12%
Re-complexed Ala-Tyr-Ile-Gln-Asn-Ala-Ala-Cys-Leu-Gly-NH2 (SEQ ID NO:152) (peptide)	–	1	0	–
Re-complexed Sar-Arg-Val-Tyr-Ile-Cys-His-Pro-Thr (SEQ ID NO:162) (peptide)	–	–	–	% Inhibition at 1 µM [4]: 20%
Re-complexed Sar-Arg-Val-Tyr-Ile-His-Cys-Gly-Thr (SEQ ID NO:166) (peptide)	–	–	–	% Inhibition at 1 µM [4]: 11%
Re-complexed Ala-Tyr-Ile-Gln-Asn-Ala-Pro-Leu-Gly-Cys-NH2 (SEQ ID NO:149) (peptide)	–	0	6	–
Re-complexed Ac-Val-Ser-Cys-Asn-Lys-Tyr-Phe-Ser-Asn-Ile-His-Trp-NH2 (SEQ ID NO:4) (peptide)	0	–	–	–
Re-complexed Ala-Tyr-Ile-Gln-Asn-Ala-Cys-Pro-Leu-Gly-NH2 (SEQ ID NO:153) (peptide)	–	0	2	–
Re-complexed Sar-Arg-Val-Tyr-Ile-His-Gly-Cys-Thr (SEQ ID NO:160) (peptide)	–	–	–	% Inhibition at 1 µM [4]: 5%
Re-complexed Ac-Val-Ser-Asn-Lys-Tyr-Phe-Ser-Cys-Asn-Ile-His-Trp-NH2 (SEQ ID NO:9) (peptide)	35	–	–	–
Re-complexed Ala-Tyr-Ile-Gln-Asn-Ala-Ala-Leu-Cys-Gly-NH2 (SEQ ID NO:151) (peptide)	–	0	0	–
Re-complexed Ala-Tyr-Ile-Gln-Asn-Cys-Ala-Pro-Leu-Gly-NH2 (SEQ ID NO:155) (peptide)	–	0	42	–
